Measurements taken from the RNAGym collection of RNA variant scans (doi:10.1073/pnas.2313332121).
This sample holds only a part of the variants without activity.

B1: TPR 5TU (parent)
chain: GGAUCUUCUCGAUCUAACAAAAAAGACAAAUCUGCCACAAAGCUUGAGAGCAUCUUCGGAUGCAGAGGCGGCAGCCUUCGGUGGCGCGAUAGCGCCAACGUUCUCAACUAUGACACGCAAAACGCGUGCUCCGUUGAAUGGAGUUUAUCAUG

Variants of: B1
Assay: polymerase ribozyme fitness, log enrichment relative to wild type (log ratio); higher = more active; in vitro selection for triplet polymerase activity
Summary of the method: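 Mutant libraries of each subunit of a heterodimeric triplet polymerase ribozyme were built by PCR and transcribed. Each library went through one round of in vitro selection in triplicate: annealing with biotinylated primer, partner subunit and triplets, frozen incubation at −7 °C, gel excision of extended constructs, streptavidin-bead capture and RT-PCR. Input and output libraries were Illumina-sequenced; only genotypes with ≥10 input reads and ≥1 read per output were kept. Fitness is log2(genotype enrichment/wild-type enrichment), using inverse-variance-weighted replicate averages.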

Variant	polymerase ribozyme fitness (log ratio)
A3U A47C C93U C118U	-2.05
A3G A52U C54U U77G A121G A122G A137G	≤ -4.2
A3G C43U A60C G84A U130A	≤ -4.2
A3C C8U C18U A49G C87A	≤ -4.2
A3C C10G A29U U33G C38U C63U	≤ -4.2
A3C A41G G84A G126C	-0.499
A3C G50U	-1.07
A3U A23C	-3.76
A3U A17C A89U C132U	-1.09
A3G A89G C93U A137C A138U G140A	≤ -4.2
A3U C93G	-2.5
A3U C93A	-2.19
A3G C14G A147U	-2.9
A3C U6A C35A C95U U102C C103G G143U	≤ -4.2
A3C U4A	0.257
A3C C14U A16G G59A C87A	≤ -4.2
A3G C85G	-3.16
A3G C85U	-1.05
A3G U13C A98U A107U	-4
A3U A23U C96U	≤ -4.2
A3U C5G U7C A30C C36U U55A A60G C75U C87G U101A A119C C123G G143U	≤ -4.2
A3C A17U A26U C54A C75U C93U C103G G143C	≤ -4.2
A3U A16C A60G C87A U102G C108G U127A U145G	≤ -4.2
A3U A21C C69A C76A G86A A89G A122G	≤ -4.2

Variant	polymerase ribozyme fitness (log ratio)
A3C A28G A37U A52U G83U	≤ -4.2
A3G A49C C51U G59C C95U C131G	≤ -4.2
A3U A37U C96U C118G	-3.38
A3G U56C C87A G92C	-2.12
A3G A22C U45C A66C G67C C93U A113U	≤ -4.2
A3G C93U	-1.78
A3C A24G C36U A41U C72U C85A A91U U151A G152C	≤ -4.2
A3G C8U G25C U45G U55G G81C C95U C114U G117U A120G A122G	≤ -4.2
A3G G71U C96A A107G C116U C125G	≤ -4.2
A3U C8U C14G A19C U33A A52C G70A C79G C87G G152U	≤ -4.2
A3G A19C G92A A98G	-3.18
A3C G86A C125U	-2.79
A3C C85U	-1.46
A3G U82G C96U U148A	-4.17
A3C C5U C43U G70C G84A A106U A113C	≤ -4.2
A3C C85U C96U	-0.556
A3U A52C G86U A119U G141U	-3.78
A3C A60G	-0.264
A3C A12U U56A C93A A98U A107G C129U	≤ -4.2
A3U C10U U56A C96U C116U G143A	-3.56
A3G G84C	-1.98
A3G G94U C103U U127C U134C G136A	-3.9
A3C C10G C57A G83A	-3.78
A3U C51U C95U	-1.09

Variant	polymerase ribozyme fitness (log ratio)
A3C C87G	-3.29
A3G A41U C96U	-1.56
A3C C27U C35G C57A G84A C87U	≤ -4.2
A3C C18G U56A C57A C93G U146G	≤ -4.2
A3G C93A C108U C125G A142G U145G U146A	≤ -4.2
A3G U4G U15A C27U C38A C57G G92A A119U	≤ -4.2
A3U A22C U31C U61A	-2.45
A3C C76U C96A	-0.525
A3G C87U	-0.743
A3U C85U C96U C108G G140C	≤ -4.2
A3G A60C C93U U145G	-2.53
A3U A22G C43U G68A U78G G92A A107U A110G A113G U151C	≤ -4.2
A3U C18A A22U A37G C85U	-3.29
A3G A17C G143C	-2.6
A3G C14G U55A U56A C85U	-4.18
A3G U4A U53C G59U U61A G71C C85A	≤ -4.2
A3U A28C U55G U56G C63G G86C A91C	≤ -4.2
A3G C8A U44A A47C U56A G84C C87G	≤ -4.2
A3G G11C C87A A91U A137G	≤ -4.2
A3U C96A	-0.199
A3U C96G	-1.47
A3C U13G G62A A66C U145A	≤ -4.2
A3U C32G A49U	≤ -4.2
A3U A73G G86U C129A A137G	≤ -4.2

Variant	polymerase ribozyme fitness (log ratio)
A3U A20C G58C A73U G81A A147C	≤ -4.2
A3G A23U C85A A106U G133U G143U	≤ -4.2
A3G A12C G62U G70C C79G G81A G84A A147C	≤ -4.2
A3C C14G A39C G81U C96U C105U A121U U134C U135C U148C	≤ -4.2
A3G C87U C132G	-4.07
A3U C36U G67U C95A	≤ -4.2
A3G G84A A98U	-1.36
A3C U6G G46C C75A C79A G86A C103G G126U	≤ -4.2
A3C U4A A121G G141A A142C	-4.03
A3U A17G A49C C93A U104A A119C C132U G141C U145G	≤ -4.2
A3C U4G A21C C38G A41C G68A G81A C85U C95U C116G	≤ -4.2
A3G A16U U53A C75U G92U	-3.54
A3U A12G A22C A37U A47G A97G	-3.5
A3U C14G A30U U55G C95U	≤ -4.2
A3U C51A G124C	-2.87
A3C C93A A98U	-1.79
A3G U9G A16G A21C G84A G133C G141A	≤ -4.2
A3U C8A U13G U90A C93A A107G G143C	≤ -4.2
A3C C57U U82G G84A U90A C93G C149U	≤ -4.2
A3C U6A	-0.461
A3G G94C	-1.07
A3U C36U U56G A60C U61G C79U C93U C99U G112C U144A A150C	≤ -4.2
G1U	0.22
A3U C8U C27A A28C C51A A52C C54A C93U C103G C108G A115C C118A U135A A142U	≤ -4.2

Variant	polymerase ribozyme fitness (log ratio)
A3C A97U U135G G140C	≤ -4.2
A3C U101G C105U A138C	-4.17
A3U C36U	-2.21
A3C U44G U56A G84C	≤ -4.2
A3C G48U C69U	-2.88
A3C U45A G67U G71C G80C C95A C103A	≤ -4.2
A3C U56G C93U C114G U134A U148C	≤ -4.2
A3U C5G A19U C36U G83A	-3.1
A3G C14U G34A G48A C85A G126U G136A U144G	≤ -4.2
A3C C32U G59A	-3.67
A3G C10G A41G C76A U145A	≤ -4.2
A3C U7G C87U C93G A98G G100U A120C U148A U151G	≤ -4.2
A3C C35U C75A C129G	≤ -4.2
A3C A30U C93U A115G	≤ -4.2
A3C C85A U130A C132G	≤ -4.2
A3G U44G C57A G59U G68C C87G	≤ -4.2
A3C U4A U56G C57U C132A	-4.08
A3U C14U A40U A52U G84A G112C	≤ -4.2
A3U A60G G70C G80C G86A U135G U144A	≤ -4.2
A3U A30U G86U C87U	≤ -4.2
A3G C38A G124C U134G G136U U146G	≤ -4.2
A3U C96U A97G	0.661
A3U C76A C87U A113C U130A	≤ -4.2
A3U A24G C32G	-4.15

Variant	polymerase ribozyme fitness (log ratio)
A3G A21C A60G C76A C85G	-0.977
A3G A147U	1.09
A3G C10A A12G G59U A66G C72G C85U	≤ -4.2
A3C C85U G141C	-2.07
A3C A22U C85G	-2.18
A3G C32G C35U A49C G50C C85A C103U C118G	≤ -4.2
A3U A20U A41G A49G A64U C108G	≤ -4.2
A3G A73U A121U	-0.51
A3U A28C C63U C85U A142C G152U	-3.91
A3C U7A G84U U144G	-2.38
A3U C76U G124C G141C	-3.96
A3U C38A C85G C99U G124A	-3.77
A3G C63U A73G G86U U135A	-3.75
A3G A113G C118G	-3.65
A3G U6G U90G C103U G141C	≤ -4.2
A3U C8A A17G U56A G59A C85A A120G	≤ -4.2
A3G U7G G46A A47U C51U G94C C125U G143A	≤ -4.2
A3C C63G C118U	-0.545
A3U C5G C18U U31A C76U G94U	-1.46
A3G G83A G86U C118U	-3.29
A3G G46C C54A U146C	-3.68
A3C A16U C93G C118U U130G	≤ -4.2
A3C C14G A52C C93U G141U	-4.16
A3C U56G C57G C116G	-2.89

Variant	polymerase ribozyme fitness (log ratio)
A3C C10G G11U A47U G48A G58C U82G G83A A137U	≤ -4.2
A3U A21U G50U G58A U77A G100U A137G	≤ -4.2
A3G A20C U53A G81C A121G	-1.59
A3U C35G C93U G100A C105G G133C	≤ -4.2
A3U A47C C57A	-0.307
A3C C14A A26G G50C A91G G117A C125U G140A G143C	≤ -4.2
A3U C8U C96U	-1.89
A3C C69A C87G U146C C149U U151G	≤ -4.2
A3U A16C A52U C57U C76U G86U	≤ -4.2
A3U C8A C18U A47C A49U C93U U102G A107G G133U	≤ -4.2
A3U A30G U104C C105A C114G A115G A122G C129A	≤ -4.2
A3G G86A	-1.52
A3C U9A A30U G48A U53A C54U G67U C93G G126A U135G	≤ -4.2
A3G U13G A21U A40U C69A C79G G80A G83U C85U G86U G136C	≤ -4.2
A3U C5A U15C A19G C57G C118G G136A G141C A142C	≤ -4.2
A3C A20C C38U A41C U53A G71A C93A G94U G126C	≤ -4.2
A3G A30G C38A G83A U101G	≤ -4.2
A3G C18A C93G C123U C131U	-1.32
A3C U4A U6C U15C A17G C38U C54U C72U G86U U127G	≤ -4.2
A3U C8U	-0.611
A3U C8G	≤ -4.2
A3U A12G C87G	-4.02
A3U A91C	-3.34
